Measured values from patent US6479055.

biological target: viral gp41 (HIV-1 transmembrane protein) of HIV-1IIIB (HIV-1IIIB) (UniProt P03377); assay: cell-based or functional assay

Row | Substance | Cell fusion (IC90) | HIV infectivity (IC90)
1 | DP107 (SEQ ID NO:25), synthetic peptide of residues 558 to 595 of HIV-1LAI gp41 | 1000 nM | 1000 nM
2 | M41-PΔ178 (M41-P from which the DP-178 region has been deleted; gp41 amino acids 540-642 with Ile578Pro) (from UniProt P03377 540-642) | > 50000 nM | > 8000 nM
3 | M41 (maltose binding protein fused to the extracellular domain of HIV-1 gp41, residues 540-686) (from UniProt P0AEX9 27-392; P03377 540-686) | > 50000 nM | > 16000 nM
4 | DP178 (SEQ ID NO:1), synthetic peptide of amino acids 638 to 673 of HIV-1LAI gp41 | 1 nM | 80 nM
5 | M41-P (M41 with an Ile to Pro mutation at position 578) (from UniProt P0AEX9 27-392; P03377 540-686) | 83 nM | 66 nM
